Results from paper PMC10875621.

Target: netrin-1 (UniProt O95631)

percent of DCC-HaloTag speckles in grip (immobile) phase in growth-cone filopodia of hippocampal neurons on netrin-1-coated substrate, TIRF speckle imaging (15% grip on polylysine alone): 40%
Substance: DCC-HaloTag (from UniProt P43146 26-1447) (receptor)
